From US20170233490A1 (Hoffmann-La Roche, published 2017)

Tests used:
TtSlyD-FKBP-Her3 [1] = biological target: T1, TtSlyD-FKBP-Her3; assay: SPR Biacore 3000, antibody captured, 25 C
T1 construct: N-terminal Met present or not; also called thermo SlyD-Her3; ttSlyD-Her3
T1 chain: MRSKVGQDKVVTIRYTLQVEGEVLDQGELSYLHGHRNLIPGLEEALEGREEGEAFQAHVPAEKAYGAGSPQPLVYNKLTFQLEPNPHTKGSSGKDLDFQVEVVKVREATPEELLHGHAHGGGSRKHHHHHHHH

[2] = biological target: T2, human HER3 Extracellular Domain (ECD) (human, UniProt P21860 20-643); assay: SPR Biacore 3000, antibody captured, 25 C
T2 construct: human recombinant, 68 kDa; 'closed' conformation without ligand; also called Her3 ECD; Her-3 ECD
Description: (§1) A CMS series sensor was mounted into the system and was normalized in HBS-ET buffer (10 mM HEPES pH 7.4, 150 mM NaCl, 3 mM EDTA, 0.005% w/v Tween 20) according to the manufacturer's instructions. The sample buffer was the system buffer supplemented with 1 mg/ml CMD (Carboxymethyldextran). The system operated at 25° C. 10000 RU RAM-Fcγ (relative units of Fcγ-fragment Rabbit Anti-Mouse IgG/Jackson Laboratories) were immobilized according to the manufacturer's instructions using EDC/NHS chemistry on all flow cells. The sensor was deactivated using 1M ethanolamine. Analytes in solution were injected at 100 μl/min at different concentration steps of 0 nM, 1.1 nM, 3.7 nM, 11.1 nM, 33.1 nM and 90 nM for 2 min. The dissociation was monitored for 5 min. Acidic regeneration of the sensor surface was achieved using three consecutive injections of 10 mM Glycine pH 1.7 at 30 μl/min for 60 sec. Kinetic data were evaluated according to a Langmuir fit.

HER3 ECD-HRG complex = biological target: T3, HER3 ECD-HRG complex (human, UniProt P21860 20-643); assay: SPR Biacore 3000, antibody captured, 25 C
T3 construct: HER3 ECD preincubated with a 3- to 6-fold molar excess of Heregulin ('open' conformation); biotinylated Her3-ECD in the ribosome display; also called HER3-ECD/HRG1β
Description: as §1

TtSlyD-FKBP-Her3 [3] = biological target: T1, TtSlyD-FKBP-Her3; assay: SPR Biacore 3000, antibody captured, 25 C
Description: as §1

TgSlyDΔIF = biological target: T4, TgSlyDΔIF; assay: ELISA, coated antigen 0.5 µg/ml, hybridoma supernatant
T4 construct: scaffold without hairpin insert, negative control
T4 chain: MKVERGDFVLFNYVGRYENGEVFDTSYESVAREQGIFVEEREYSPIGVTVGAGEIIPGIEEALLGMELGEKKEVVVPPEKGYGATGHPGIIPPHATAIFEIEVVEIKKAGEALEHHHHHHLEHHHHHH
Description: For the ELISA the screening an antigen down format was used. […] Hybridoma Supernatant was added to the plates and incubated for 1 h at room temperature. Bound antibody was detected with a HRP-labeled F(ab′)₂ goat anti-mouse Fcγ (Dianova) and ABTS (Roche) was used as a HRP-substrate.

HER4 ECD-HRG complex = biological target: T5, HER4 ECD-HRG complex (human, UniProt Q15303 26-651); assay: SPR Biacore T100; reference: HER4-ECD without Heregulin
T5 construct: HER4 ECD preincubated with a 5-fold molar excess of Heregulin
T5 sequence 1: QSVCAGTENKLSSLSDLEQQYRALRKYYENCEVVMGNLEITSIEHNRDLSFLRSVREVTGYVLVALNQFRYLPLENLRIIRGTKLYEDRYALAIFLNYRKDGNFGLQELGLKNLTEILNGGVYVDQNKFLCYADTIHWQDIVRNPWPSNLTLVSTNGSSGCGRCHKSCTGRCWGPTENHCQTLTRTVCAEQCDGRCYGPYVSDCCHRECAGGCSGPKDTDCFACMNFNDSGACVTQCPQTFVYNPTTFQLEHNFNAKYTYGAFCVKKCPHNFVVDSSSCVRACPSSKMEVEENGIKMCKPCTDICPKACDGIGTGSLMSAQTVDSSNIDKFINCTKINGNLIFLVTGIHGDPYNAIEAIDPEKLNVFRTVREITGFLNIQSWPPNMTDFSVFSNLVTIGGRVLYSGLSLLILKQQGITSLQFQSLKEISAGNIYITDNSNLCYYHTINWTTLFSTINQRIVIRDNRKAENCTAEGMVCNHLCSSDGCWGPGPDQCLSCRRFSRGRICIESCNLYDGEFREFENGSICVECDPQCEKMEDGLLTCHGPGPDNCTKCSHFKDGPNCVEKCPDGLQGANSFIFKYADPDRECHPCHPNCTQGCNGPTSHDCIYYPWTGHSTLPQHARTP
T5 sequence 2: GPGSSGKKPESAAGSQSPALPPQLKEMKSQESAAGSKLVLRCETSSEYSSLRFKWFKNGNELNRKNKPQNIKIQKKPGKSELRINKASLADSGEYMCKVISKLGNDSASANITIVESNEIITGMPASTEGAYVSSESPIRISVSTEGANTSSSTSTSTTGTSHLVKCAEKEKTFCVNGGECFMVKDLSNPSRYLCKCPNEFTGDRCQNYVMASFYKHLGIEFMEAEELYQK

[4] = biological target: T6, human HER4 Extracellular Domain (ECD) (human, UniProt Q15303 26-651); assay: SPR Biacore T100, antibody captured, 25 C; SPR at 25 C, antibody captured, HER4-ECD without HRG
T6 construct: also called Her4 ECD; HER4-ECD
T6 sequence: T5 sequence 1
Description: A CM5 series sensor was mounted into the system and was normalized in HBS-ET buffer (10 mM HEPES pH 7.4, 150 mM NaCl, 3 mM EDTA, 0.005% w/v Tween 20) according to the manufacturer's instructions. The sample buffer was the system buffer supplemented with 1 mg/ml CMD (Carboxymethyldextran, Sigma #86524). The system operated at 25° C. 6500 RU RAM-Fcγ (relative units of Fcγ-fragment RamIgG, GE Healthcare) were immobilized according to the manufacturer's instructions using EDC/NHS chemistry on all four flow cells. The sensor was deactivated using 1M ethanolamine.
The binding activity of the respective antibody against the analytes was kinetically tested. Antibodies were captured at 35 nM concentration by a 1 min injection at 5 μl/min. The flow rate was set to 100 μl/min.
Analytes in solution were injected at different concentration steps of 0 nM, 1.1 nM, 3.7 nM, 11.1 nM, 33.1 nM and 90 nM for 3.5 min. The dissociation was monitored for 15 min. Where possible, kinetic signatures were evaluated according to a Langmuir fit.

B1: anti-HER3/HER4 antibody M-05-74 (antibody, V domains shown)
VH: QVQLQQSGAELAKPGASVKMSCKTSGYTLTDYWIHWVKQRPGQGLEWIGYINPYTGYTESNQKFKDKATLTADKSSNTAYIQLSSLTSEDSAVYYCARPYYYGDYWGQGTTLTVSS
VL: QIVLTQSPAIMSASPGERVTITCSASSSVSYMHWFQQKPGTSPKLLIYSTSNLASGVPARFSGSGSGTSYSLTISRMEAEDAATYYCQQRSSYPFTFGSGTKLEIK
notes: murine monoclonal IgG from hybridoma (supernatant or purified), bivalent; also called M-074; M-5-74
**Q.** With B1 as the binder, how does the Kd (TtSlyD-FKBP-Her3 [1]) read?
**A.** 27 nM

**Q.** What about the “BL (Binding Late)” value [2] of the same binder?
**A.** 36 RU

**Q.** And the “MR (Molar Ratio)” value [2]?
**A.** 0.2

**Q.** And the kon [2]?
**A.** 20400 M⁻¹ s⁻¹

**Q.** And the t/2-diss [2]?
**A.** 28 min

**Q.** And the “BL (Binding Late)” value (HER3 ECD-HRG complex)?
**A.** 199 RU

**Q.** And the “MR (Molar Ratio)” value (HER3 ECD-HRG complex)?
**A.** 0.8

**Q.** What about the kon (HER3 ECD-HRG complex) of the same binder?
**A.** 66000 M⁻¹ s⁻¹

**Q.** And the t/2-diss (HER3 ECD-HRG complex)?
**A.** 18 min

**Q.** What about the “BL (Binding Late)” value (TtSlyD-FKBP-Her3 [3]) of the same binder?
**A.** 68.1 RU

**Q.** And the “MR (Molar Ratio)” value (TtSlyD-FKBP-Her3 [3])?
**A.** 1.5

**Q.** What about the kon (TtSlyD-FKBP-Her3 [3]) of the same binder?
**A.** 87500 M⁻¹ s⁻¹

**Q.** And the t/2-diss (TtSlyD-FKBP-Her3 [3])?
**A.** 4.9 min

**Q.** Does B1 bind (TgSlyDΔIF)?
**A.** no binding

**Q.** What about the “ratio MR (+Heregulin)/MR (-Heregulin)” value (HER4 ECD-HRG complex) of the same binder?
**A.** 6 fold

**Q.** And the “ratio ka (Her4-ECD-HRG)/ka (Her4-ECD)” value (HER4 ECD-HRG complex)?
**A.** 23.9 fold

**Q.** And the Kd [4]?
**A.** 150 nM

**Q.** And the koff [4]?
**A.** 0.001 s⁻¹

**Q.** What about the kon [4] of the same binder?
**A.** 6700 M⁻¹ s⁻¹
